Test results: EP1882698A1 (Chemokine Therapeutics Corp., dated 2008)
Non-standard residues stand in square brackets, D forms with d. No end group written: not given here. Aun = NCCCCCCCCCCC(=O)O

biological target: T1, CXCR3 receptor (UniProt P49682 1-368, limits assumed); assay: cell-based or functional assay
T1 sequence (looked up): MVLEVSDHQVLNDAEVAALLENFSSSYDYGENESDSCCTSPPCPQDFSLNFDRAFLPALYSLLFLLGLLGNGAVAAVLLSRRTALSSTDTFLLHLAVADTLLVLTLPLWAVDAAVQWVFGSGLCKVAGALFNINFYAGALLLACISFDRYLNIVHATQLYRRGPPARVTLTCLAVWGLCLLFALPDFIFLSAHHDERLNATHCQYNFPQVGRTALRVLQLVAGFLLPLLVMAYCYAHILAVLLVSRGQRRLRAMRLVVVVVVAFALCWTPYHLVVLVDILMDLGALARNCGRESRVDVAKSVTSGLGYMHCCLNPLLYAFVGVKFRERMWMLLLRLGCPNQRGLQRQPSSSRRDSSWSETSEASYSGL

Row | Binder | calcium mobilization activity of CXCR-3/300-19 cells, dosage 1.2 µM | calcium mobilization activity of CXCR-3/300-19 cells, dosage 3.7 µM | calcium mobilization activity of CXCR-3/300-19 cells, dosage 11.1 µM | calcium mobilization activity of CXCR-3/300-19 cells, dosage 33.3 µM | calcium mobilization activity of CXCR-3/300-19 cells, dosage 100 µM
1 | VPLSRTPRCTCISIS[Aun]ESKAIKNLLKAVSK (cysteine pairing not given here) [[Pro^7]-IP-10-(1-15)-[linker]-IP-10-(58-71)] | 16 | 14 | 14.4 | 18.6 | 55.1
2 | Ac-VPLSRTVRCTCISISN[Aun]LKAVSKEMSKRSP (cysteine pairing not given here) [Acetylated-IP-10-(1-16)-[linker]-IP-10-(66-78)] | 12.6 | 12.7 | 14.1 | 20 | 52.9
3 | Ac-VPLSRTVRATFISISN[Aun]LKAVSKEMSKRSP [Acetylated-[Ala^9,Phe^11]-IP-10-(1-16)-[linker]-IP-10-(66-78)] | 15.2 | 13.8 | 15.4 | 20 | 3.1
4 | VPLSRTVRSTSISIS[Aun]ESKAIENLLKAVSK [[Ser^9,Ser^11,Glu^63]-IP-10-(1-15)-[linker]-IP-10-(58-71)] | 18.8 | 18.5 | 17.2 | 18.9 | 46.6
5 | VPLSRTVRSTSISIS[Aun]ESKAIKNLLEAVSK [[Ser^9,Ser^11,Glu^67]-IP-10-(1-15)-[linker]-IP-10-(58-71)] | 17.4 | 15.4 | 12.5 | 13.3 | 3.4
